Data reported in patent US20250250357A1 (NANJING ZAIMING PHARMACEUTICAL, published 2025).

T1: human MSLN-R1-his protein (human, UniProt Q13421 296-390)
T1 construct: Region 1 of human MSLN, His-tagged; also called human MSLN-R1 protein; hMSLN-R1-his; not shown: His tag
T1 chain: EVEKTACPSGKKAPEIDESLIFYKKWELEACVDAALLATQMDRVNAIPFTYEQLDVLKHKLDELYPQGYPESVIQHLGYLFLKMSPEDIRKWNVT


Columns and labels:
[1] = molecular target: T2, human MSLN-FL-his protein (human, UniProt Q13421 296-580); assay: ELISA, coated MSLN full-length;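 further: binding of chimeric antibodies to plate-bound antigen, read by TMB colour after acid stop, antibody incubated 2 h at 37 °C, negative control antibody run alongside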
T2 construct: also called human MSLN full-length protein; hMSLN-FL-his; not shown: His tag

[2] = molecular target: T1, human MSLN-R1-his protein; assay: ELISA, coated MSLN-R1;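 further: serially diluted chimeric antibodies bound to the coated, BSA-blocked plate for 2 h at 37 °C, with TMB colour read after acid stop and a negative control antibody alongside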
Procedure: The plate was sealed with a plastic film and incubated at 4° C. overnight. The next day, the plate was washed twice with PBST, and a blocking buffer [PBS+2% (w/w) BSA] was added for blocking at room temperature for 2 h. The blocking buffer was discarded, and a chimeric antibody or negative control antibody serially diluted from 100 nM was added at 50 μL/well. After incubation at 37° C. for 2 h, the plate was washed 3 times with PBST. […] After incubation at 37° C. for 2 h, the plate was washed 5 times with PBST. A TMB substrate was added at 50 μL/well for incubation at room temperature for 5-10 min, and then a stop solution (1.0 N HCl) was added at 50 μL/well.

[3] = molecular target: T3, human MSLN-FL-his protein (human, UniProt Q13421 296-580); assay: SPR (Biacore), antibody captured on Protein A chip;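 further: measured at 25 °C, analyte injected 240 s in five twofold dilutions from 200 nM, dissociation up to 600 s, double-referenced, fitted with Langmuir 1:1 model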
T3 construct: made in HEK293E cells, purified on nickel column; also called hMSLN-FL-his; human MSLN full-length protein; not shown: His tag
T3 sequence (Q13421 other isoform, or with tags, fused parts or gaps): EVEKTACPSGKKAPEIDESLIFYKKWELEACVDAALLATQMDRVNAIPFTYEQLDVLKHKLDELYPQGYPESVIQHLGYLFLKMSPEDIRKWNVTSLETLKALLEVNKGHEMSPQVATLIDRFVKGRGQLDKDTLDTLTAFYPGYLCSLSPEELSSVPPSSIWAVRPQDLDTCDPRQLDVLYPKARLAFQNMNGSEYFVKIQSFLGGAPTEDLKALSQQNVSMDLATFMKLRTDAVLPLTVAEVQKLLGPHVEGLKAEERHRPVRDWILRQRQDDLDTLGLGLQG

Row | Binder | OD450 at 0.0001 nM [1] [OD450] | OD450 at 0.001 nM [1] [OD450] | OD450 at 0.01 nM [1] [OD450] | OD450 at 0.1 nM [1] [OD450] | OD450 at 1 nM [1] [OD450] | OD450 at 10 nM [1] [OD450] | OD450 at 100 nM [1] [OD450] | OD450 at none (no antibody) [1] [OD450] | OD450 at 0.0001 nM [2] [OD450] | OD450 at 0.001 nM [2] [OD450] | OD450 at 0.01 nM [2] [OD450] | OD450 at 0.1 nM [2] [OD450] | OD450 at 1 nM [2] [OD450] | OD450 at 10 nM [2] [OD450] | OD450 at 100 nM [2] [OD450] | OD450 at none (no antibody) [2] [OD450] | Kd [3] [nM] | koff [3] [s⁻¹] | kon [3] [M⁻¹ s⁻¹]
1 | S009-F2-56.12 (antibody, human IgG1, kappa, V domains shown, Human-murine chimeric antibody, human IgG1/kappa constant regions) VH: DVQLQESGPGMVKPSQSLSLTCTVTGYSITSGYDWHWIRHFPGNKLEWMGYISYSGSTNYNPSLKSRISITHDTSKNHFFLKLKSVTTEDTATYYCARGTGPDYWGQGTTLTVSS VL: DIVMTQSQKFMSTSVGDRVSITCKASQNVRTAVAWYQQKPGQSPKALIHLPSNRHTGVPDRFTGSGSGTDFTLTISNVQSEDLADYFCLQHWNYPLTFGGGTKLEIKR | 0.06 | 0.07 | 0.16 | 0.37 | 0.41 | 0.37 | 0.4 | 0.07 |  |  |  |  |  |  |  |  |  |  | 
2 | S009-F1.25.10 (antibody, human IgG1, kappa, V domains shown, human-murine chimeric antibody, human IgG1/kappa constant regions) VH: EVQLQQSGPELVKPGASLKISCKASGYSFTDYTMNWVKQSHGKNLEWIGLFNPYNGGISYNQKFKGKATLTVDKSSNTAYMELLSLTSDDSAVYFCARDGRGGFYAMDYWGQGTSVTVSS VL: DIQMTQTTSSLSASLGDRVTISCRASQDISIYLNWYQQKPDGPVKLLIYYTSRLHSGVPSRFSGSGSGTDFSLTISNLEQEDIATYFCQQGYTLPPWTFGGGTKLEIKR |  |  |  |  |  |  |  |  |  |  |  |  |  |  |  |  | 186 | 0.00067 | 3600
3 | S009-F1.62.9 (antibody, human IgG1, kappa, V domains shown, human-murine chimeric antibody, human IgG1/kappa constant regions) VH: EVQLQQSGADLVKPGASVKLSCTVFGLNFKDTFMHWVRQRPEQGLEWIGRIDPANDNSIYGPKFQDKATITADTSSNTAYLHLSSLTSEDTAVYYCLYFDNWGHGTTLTVSS VL: DIVMTQAASSEPVTPGESVSISCRSDKSLLHSNGHNYLYWFLQRPGQSPHLLIYRMSNLASGVPDRFSGSGSGTAFTLRISRVEAEDVGVYYCMQHLEYPLTFGAGTKLELKR |  |  |  |  |  |  |  |  |  |  |  |  |  |  |  |  | 745 | 0.000348 | 467
4 | S009-F2.13.3 (antibody, human IgG1, kappa, V domains shown, Human-murine chimeric antibody, human IgG1/kappa constant regions) VH: QVQLQQSGAELMKPGASVKLSCKATGYTFTGYWIEWVKQRPGHGLEWIGEILPGSGSTNYNEKFKGKATFTADTSSNTAYMQLSSLTTEDSAIYYCARAGAWFAYWGQGTLVTVSA VL: QIVLTQSPAIMSASLGERVTMTCTASSSVSSSYLHWYQQKPGSSPKLWTYSTSNLASGVPARFSGSGSGTSYSLTISSMEAEDAATYYCHQYHRSPWTFGGGTKLEIKR | 0.06 | 0.08 | 0.26 | 1.3 | 2.08 | 2.37 | 2.77 | 0.06 | 0.05 | 0.05 | 0.05 | 0.05 | 0.05 | 0.05 | 0.06 | 0.06 |  |  | 
5 | S009-F1.59.1 (antibody, human IgG1, kappa, V domains shown, human-murine chimeric antibody, human IgG1/kappa constant regions) VH: EVKLEGSGGGLVQPGGSMMLSCVATGFTFSSYWMNWVRQSPDRGLEWVAEIRLKSNGFAAFYAESVKGRFTISRDDSKSSVYLQMNNLRTEDTGIYYCTYFVHWGQGILVTVSE VL: DIVLTQSPTSLAVSLGQRATISCRTSESVEYFGTILIQWYQQKPGQPPKLLIFGASNVESGVPARFSGSGSGTDFSLNIHPVEEEDIAMYFCQQNRKVPYTFGGGTTLELKR |  |  |  |  |  |  |  |  |  |  |  |  |  |  |  |  | 563 | 0.000922 | 1640
6 | S009-F1.7.14 (antibody, human IgG1, kappa, human-murine chimeric antibody, human IgG1/kappa constant regions) heavy: not shown light: QIVLTQSPAIMSASPGEKVTISCSASSSVSYMYWYQQKPGSSPKPWISRTSNLASGVPARFSGSGSGTSYSLTISSMEAEDAATYYCQQYHSYPPTLGAGTKLELKRTVAAPSVFIFPPSDEQLKSGTASVVCLLNNFYPREAKVQWKVDNALQSGNSQESVTEQDSKDSTYSLSSTLTLSKADYEKHKVYACEVTHQGLSSPVTKSFNRGEC |  |  |  |  |  |  |  |  |  |  |  |  |  |  |  |  | 12.8 | 0.00709 | 553000

Further lines, results first:

Row | OD450 at 0.0001 nM [1] [OD450] | OD450 at 0.001 nM [1] [OD450] | OD450 at 0.01 nM [1] [OD450] | OD450 at 0.1 nM [1] [OD450] | OD450 at 1 nM [1] [OD450] | OD450 at 10 nM [1] [OD450] | OD450 at 100 nM [1] [OD450] | OD450 at none (no antibody) [1] [OD450] | OD450 at 0.0001 nM [2] [OD450] | OD450 at 0.001 nM [2] [OD450] | OD450 at 0.01 nM [2] [OD450] | OD450 at 0.1 nM [2] [OD450] | OD450 at 1 nM [2] [OD450] | OD450 at 10 nM [2] [OD450] | OD450 at 100 nM [2] [OD450] | OD450 at none (no antibody) [2] [OD450] | Kd [3] [nM] | koff [3] [s⁻¹] | kon [3] [M⁻¹ s⁻¹] | Binder
7 | 0.05 | 0.06 | 0.24 | 1.27 | 2.21 | 2.5 | 2.72 | 0.06 | 0.05 | 0.05 | 0.06 | 0.05 | 0.05 | 0.05 | 0.06 | 0.06 |  |  |  | S009-F2.23.12 (antibody, human IgG1, kappa, V domains shown, Human-murine chimeric antibody, human IgG1/kappa constant regions) VH: QVQLQQPGTELVKPGASVKLSCKASGYTFTNYWMHWVKQRPGQGLEWIGNINPSNGGPYYNERFRSKATLTVDKSSSTAYMQLSSLTSEDSAVYYCARPYYGSSYGYFDYWGQGTTLTVSS VL: DIQMTQSPSSLSASLGGKVTITCKASQDINKYIAWYQHKPGKGPRLLIHYTSELQPGIPSRFSGNGSGRDYSFSISNLEPEDIATYYCLQYANPLRTFGGGTKLEIKR
8 | 0.05 | 0.06 | 0.13 | 0.64 | 1.93 | 2.48 | 2.81 | 0.06 | 0.05 | 0.05 | 0.04 | 0.05 | 0.04 | 0.06 | 0.07 | 0.06 |  |  |  | S009-F2.17.3 (antibody, human IgG1, kappa, V domains shown, Human-murine chimeric antibody, human IgG1/kappa constant regions) VH: QVQLQQPGTELVTPGASVKLSCKASGYSFTSYWMHWVKQRPGQGLEWIGNINPSNGDTFYNEKFKNKATLTVDKSSSTAYMQLSSLTSEDSAVYYCARGWLRDYWGQGTTLTVSS VL: not shown
9 | 0.05 | 0.09 | 0.41 | 1.71 | 2.22 | 2.4 | 2.92 | 0.06 | 0.05 | 0.06 | 0.09 | 0.44 | 0.94 | 1.62 | 2.03 | 0.06 |  |  |  | S009-F2.16.10 (antibody, human IgG1, kappa, V domains shown, Human-murine chimeric antibody, human IgG1/kappa constant regions) VH: QVQLQQPGAELIKPGASVKLSCKASGYTFTSYWMHWVKQRPGQGLEWIGIIHPNIGSTNYNERFKSKATLTVDKSSSTAYMQLSSLTSEDSAVYYCARRSSNYGDWYFDVWGTGTTVTVSS VL: DIVMTQSHRFMSTSVGDRVSITCKASQDVGTSVAWYQQKPGQSPKLLIYWASTQHTGVPDRFTGSGSGTDFTLTINNVQSEDLLDYFCQQYSSYPLTFGAGTKLELKR
10 |  |  |  |  |  |  |  |  |  |  |  |  |  |  |  |  | 30.8 | 0.0109 | 354000 | S009-F2.38.12 (antibody, human IgG1, kappa, V domains shown, human-murine chimeric antibody, human IgG1/kappa constant regions) VH: QVQLQQPGTELVKPGASVKLSCKASGYTFTSYWMHWVKQRPGQGLEWIGNINPSNGGTNYNEKIKNKATLTVDKSSSTAYMQLSSLTSEDSAVYYCARWNYYGNYPFDYWGQGTTLTVSS VL: DIVMTQSQKFMSTTVGDRVSITCKASQNVGTAVAWYQQKPGQSPKLLIYSASNRYTGVPDRFTGSGSGTDFTLTISNMQSEDLADYFCQQYSSYPLTFGAGTKLELKR
11 | 0.05 | 0.09 | 0.41 | 1.93 | 2.46 | 2.56 | 2.95 | 0.06 | 0.05 | 0.05 | 0.05 | 0.05 | 0.05 | 0.05 | 0.06 | 0.06 |  |  |  | S009-F2.21.4 (antibody, human IgG1, kappa, V domains shown, Human-murine chimeric antibody, human IgG1/kappa constant regions) VH: EVQLQQSGPELVKPGASVKIPCKASGYTFTDYNMDWVKQSHGKSLEWIGDINPNNGGSIYNQRFKGKATLTVDKSSSTAYMELRSLTSEDSAVYYCARRAYYSTGYFDVWGTGTTVTVSS VL: QIVLTQSPALMSASPGEKVTITCSASSSISYMHWFQQKPGTSPKLWIYSTSTLASGVPARFSGSGSGTSYSLTISRMEAEDTATYYCQQRSSYPPTFGGGTKLEIKR
12 |  |  |  |  |  |  |  |  |  |  |  |  |  |  |  |  | 29.1 | 0.0227 | 780000 | S009-F2.21.4 (antibody, human IgG1, kappa, V domains shown, human-murine chimeric antibody, human IgG1/kappa constant regions) VH: EVQLQQSGPELVKPGASVKIPCKASGYTFTDYNMDWVKQSHGKSLEWIGDINPNNGGSIYNQRFKGKATLTVDKSSSTAYMELRSLTSEDSAVYYCARRAYYSTGYFDVWGTGTTVTVSS VL: QIVLTQSPALMSASPGEKVTITCSASSSISYMHWFQQKPGTSPKLWIYSTSTLASGVPARFSGSGSGTSYSLTISRMEAEDTATYYCQQRSSYPPTFGGGTKLEIKR
13 | 0.05 | 0.05 | 0.08 | 0.42 | 1.57 | 2.37 | 2.53 | 0.06 | 0.05 | 0.05 | 0.05 | 0.05 | 0.05 | 0.06 | 0.07 | 0.06 |  |  |  | S009-F2.39.3 (antibody, human IgG1, kappa, V domains shown, Human-murine chimeric antibody, human IgG1/kappa constant regions) VH: QVQLQQPGTELVKPGASVKLSCKASGYTFTNYWMHWVKQRPGQGLEWIGNINPSSGDSYYNERFMSKAKMTVDKSSSTAYMQLSSLTSEDSAVYYCARSGGLWLAFWGPGTLVTVSA VL: DIVMTQSPSSLAMSVGQKVTMSCKSSQTLLNSVSQNNYLAWYQQKPGQSPTLLVYFASTRESGVPDRFIGGGSGTDFTLTISSVQAEDLADYFCQQHYRTPYTFGGGTNLEIKR
